According to patent publication US10350264B2, “Compositions and methods for modulating NCOA4-mediated autophagic targeting of ferritin” (Dana-Farber Cancer Institute, Inc., priority 2014, dated 2019):
Ends that are not written are not given here.

Target: T1, ferritin purified from horse spleen (mixture of FTH1 and FTL subunits) (Equus caballus, UniProt Q8MIP0)
T1 construct: ferritin purified from horse spleen; purchased Sigma A3641-100 mg; host or cells: horse spleen
Experiment: anti-MYC immunoprecipitation of in vitro translated MYC-NCOA4 constructs incubated with ferritin
Assay type: binding
Details: anti-MYC IP, anti-FTH1 immunoblot, FIG. 5
Method: To probe the interaction between ferritin and NCOA4, initial binding assays using MYC-tagged NCOA4 full-length and truncation constructs produced using an in vitro translation (“IVT”) system were conducted. MYC-NCOA4 fragments were cloned using PCR into a modified T7 cell-free expression vector (pT7CFE1-NMyc, #88863, Thermo Scientific). 1-Step Human Coupled IVT Kit—DNA from Thermo Scientific (product #88881) was used to produce MYC-tagged NCOA4 constructs as described in the product manual. Apoferritin (Sigma, A3641-100 mg) was added in a pull-down assay using anti-c-Myc Agarose Affinity Gel antibody produced in rabbit (Sigma, A7470-1 ML). Affinity purification reactions were washed thoroughly with 150 mM NaCl, 20 mM Tris (pH 7.4), and 2 mM dithiothreitol. Proteins were eluted with SDS sample buffer and analyzed by 4-20% gradient SDS-PAGE and immunoblotting with anti-FTH1 antibody (Cell Signaling 3998; Western blot 1:1,000) or anti-MYC antibody (Santa Cruz Sc-40; western blot 1:1,000).
The full-length, N-terminal (amino acids (aa) 1-245 of SEQ ID NO: 4) and C-terminal (aa 235-614 of SEQ ID NO:4) MYC-NCOA4 were incubated with ferritin purified from horse spleen (Apoferritin (Sigma, A3641-100 mg), consisting of a mixture of FTH1 and FTL subunits) and anti-MYC immunoprecipitation was performed followed by immunoblotting as described above.

T1 sequence (Q8MIP0 whole entry): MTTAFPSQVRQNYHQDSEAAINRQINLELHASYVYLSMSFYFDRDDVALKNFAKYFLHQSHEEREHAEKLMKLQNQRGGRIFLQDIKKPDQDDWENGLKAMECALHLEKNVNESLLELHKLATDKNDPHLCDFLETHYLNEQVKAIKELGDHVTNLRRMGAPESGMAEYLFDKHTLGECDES
T1 sequence (P02791 2-175 partner limits assumed): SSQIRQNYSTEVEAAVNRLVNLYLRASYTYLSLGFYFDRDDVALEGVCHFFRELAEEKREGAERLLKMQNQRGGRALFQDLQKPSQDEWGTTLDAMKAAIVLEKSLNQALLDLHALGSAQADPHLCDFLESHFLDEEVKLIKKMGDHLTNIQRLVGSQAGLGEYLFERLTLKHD

association of MYC-NCOA4 construct with ferritin | association of MYC-NCOA4 construct with ferritin (listed as Full-length NCOA4) | Molecule
associated with ferritin | bind to ferritin | aa 1-614: full-length human NCOA4 (NP_001138735.1), in vitro translated
associated with ferritin | – | aa 555-614: printed as C-terminal MYC-NCOA4; probably only the C-terminal part of NCOA4B ({MYC tag}-GEDKWLLRKKAQEVLLNSPLQEEHNFPPDHYGLPAVCDLFACMQLKVDKEKWLYRTPLQM; cysteine pairing not given here)
did not associate with ferritin | – | N-terminal MYC-NCOA4: NCOA4 N-terminal fragment, amino acids 1-245 of SEQ ID NO: 4 (protein, N-terminal MYC tag; Homo sapien) MNTFQDQSGSSSNREPLLRCSDARRDLELAIGGVLRAEQQIKDNLREVKAQIHSCISRHLECLRSREVWLYEQVDLIYQLKEETLQQQAQQLYSLLGQFNCLTHQLECTQNKDLANQVSVCLERLGSLTLKPEDSTVLLFEADTITLRQTITTFGSLKTIQIPEHLMAHASSANIGPFLEKRGCISMPEQKSASGIVAVPFSEWLLGSKPASGYQAPYIPSTDPQDWLTQKQTLENSQTSSRACN
did not bind ferritin | – | NCOAB: naturally occurring transcript variant of NCOA4 consisting of amino acids 1-238 and 555-614 (protein, left off: small tags and cut ends) MNTFQDQSGSSSNREPLLRCSDARRDLELAIGGVLRAEQQIKDNLREVKAQIHSCISRHLECLRSREVWLYEQVDLIYQLKEETLQQQAQQLYSLLGQFNCLTHQLECTQNKDLANQVSVCLERLGSLTLKPEDSTVLLFEADTITLRQTITTFGSLKTIQIPEHLMAHASSANIGPFLEKRGCISMPEQKSASGIVAVPFSEWLLGSKPASGYQAPYIPSTDPQDWLTQKQTLENSQGEDKWLLRKKAQEVLLNSPLQEEHNFPPDHYGLPAVCDLFACMQLKVDKEKWLYRTPLQM
